The results in this text go back to patent US20240067734A1 (Hoffmann-La Roche, published 2024).

Numbering of substitutions follows the chain as printed. Numbers in names are those of the source.

B1: NKG2D×CEA bispecific antibody in M format, P1AE4972 (395 C50S, non-humanized) / huA5B7 (bispecific antibody, V domains shown)
VH 1: QEQLEQSGGGLVTPGGSLKLCCTASGFDFNTFWMTWVRQAPGKGLEWIGSIHGGSGSRDYASWVNGRFTLSRDIDQSTACLQVNSLTAADTAMYYCARPGYRSWSKTFDLWGQGTMVTVSS
VL 1: DIQMTQSPSSLSASVGDRVTITCRASQDISGALNWYQQKPGKAPNLLIYAASSLQSGVPSRFSGSGSGTDYTLTISSLQPEDFATYYCQQANSFPLTFGGGTKVEIK
VH 2: EVQLLESGGGLVQPGGSLRLSCAASGFTFTDYYMNWVRQAPGKGLEWLGFIGNKANAYTTEYSASVKGRFTISRDKSKNTLYLQMNSLRAEDTATYYCTRDRGLRFYFDYWGQGTTVTVSS
VL 2: EIVLTQSPATLSLSPGERATLSCRASSSVTYIHWYQQKPGQAPRSWIYATSNLASGIPARFSGSGSGTDFTLTISSLEPEDFAVYYCQHWSSKPPTFGQGTKLEIK
notes: also called non-humanized comparator
B2: NKG2D×CEA bispecific antibody in M format, P1AE4977 / huA5B7 (bispecific antibody, V domains shown)
VH 1: EVQLLESGGGLVQPGGSLRLSCAASGFDFNTFWMTWVRQAPGKGLEWVGSIHGGSGSRDYADSVKGRFTISRDIDQSTAYLQMNSLRAEDTAVYYCARPGYRSWSKTFDLWGQGTTVTVSS
VL 1: B1 VL 1
VH 2: B1 VH 2
VL 2: B1 VL 2
B3: NKG2D×CEA bispecific antibody in M format, P1AE4981 / huA5B7 (bispecific antibody, V domains shown)
VH 1: QEQLQESGPGLVKPSETLSLTCTVSGFDFNTFWMTWIRQPPGKGLEWIGSIHGGSGSRDYNPSLKSRVTISVDIDQNQFSLKLSSVTAADTAVYYCARPGYRSWSKTFDLWGQGTTVTVSS
VL 1: B1 VL 1
VH 2: B1 VH 2
VL 2: B1 VL 2
B4: NKG2D×CEA bispecific antibody in M format, P1AE4979 / huA5B7 (bispecific antibody, V domains shown)
VH 1: B2 VH 1 with E1Q, V2E
VL 1: B1 VL 1
VH 2: B1 VH 2
VL 2: B1 VL 2
B5: NKG2D×CEA bispecific antibody in M format, P1AE4975 / huA5B7 (bispecific antibody, V domains shown)
VH 1: B2 VH 1 with I74N, D75S, Q76K, S77N
VL 1: B1 VL 1
VH 2: B1 VH 2
VL 2: B1 VL 2
B6: NKG2D×CEA bispecific antibody in M format, P1AE4978 / huA5B7 (bispecific antibody, V domains shown)
VH 1: B2 VH 1 with L5V, R72A
VL 1: B1 VL 1
VH 2: B1 VH 2
VL 2: B1 VL 2
B7: NKG2D×CEA bispecific antibody in M format, P1AE4973 / huA5B7 (bispecific antibody, V domains shown)
VH 1: B2 VH 1 with I74N, D75S, Q76K, S77N, A79L
VL 1: B1 VL 1
VH 2: B1 VH 2
VL 2: B1 VL 2
B8: anti-NKG2D antibody clone 014 (antibody, V domains shown)
VH: EVQLLESGGGLVQPGGSLRLSCAASGFTFSSYAMSWVRQAPGKGLEWVSRISDGGGTIYYTDSVKGRFTIARDNSKNTLYLEMKSLRAEDTAVYYCAKHRLYDSIGAYAMDVWGQGTTVAVSS
VL: DIQMTQSPSSLSASVGDRVTITCRASQSISSYLNWYQQKPGKAPKLLIYDASNLETGVPSRFSGSGSGTDFTLTISSLQPEDFATYYCQQANSFPLTFGPGTKVDIK
notes: From transgenic rabbits
B9: anti-NKG2D clone 13C6 Fab (Fab, V domains shown)
VH: EVQLVQSGAEVKKPGESLKISCKGSGYSFTSYWIGWVRQMPGKGLEWMGIIYPGDSDTRYSPSFQGQVTISADKSISTAYLQWSSLKASDTAMYYCARLYPVGVYFDYWGQGTLVTVSS
VL: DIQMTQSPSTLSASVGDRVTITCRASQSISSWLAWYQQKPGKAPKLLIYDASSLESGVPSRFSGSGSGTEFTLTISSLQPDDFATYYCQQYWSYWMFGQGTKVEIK
notes: Phage-display Fab purified from E. coli by IMAC (Flag-tagged)
B10: anti-NKG2D clone 5C5 Fab (Fab, V domains shown)
VH: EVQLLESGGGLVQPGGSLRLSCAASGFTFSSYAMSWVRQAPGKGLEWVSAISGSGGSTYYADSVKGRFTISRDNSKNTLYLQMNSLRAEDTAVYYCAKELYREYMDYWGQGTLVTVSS
VL: SSELTQDPAVSVALGQTVRITCQGDSLRSYYASWYQQKPGQAPVLVIYGKNNRPSGIPDRFSGSSSGNTASLTITGAQAEDEADYYCNSRDSFSIHQNVFGGGTKLTVL
notes: as for B9

One experiment has as its target T1, human NKG2D expressed on cells (human, UniProt P26718 1-216).
T1 construct: the cell type is named under assay; also called NKG2D on NK92 cells; HEK293T human NKG2D
T1 chain: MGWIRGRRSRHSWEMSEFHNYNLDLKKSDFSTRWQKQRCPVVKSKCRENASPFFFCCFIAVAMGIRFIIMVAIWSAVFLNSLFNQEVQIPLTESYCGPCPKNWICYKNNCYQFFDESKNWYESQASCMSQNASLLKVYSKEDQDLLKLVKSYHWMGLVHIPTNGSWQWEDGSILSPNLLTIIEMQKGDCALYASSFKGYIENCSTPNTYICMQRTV
Kind of experiment: flow cytometry; NK92 cells.
The term EC50 denotes the midpoint of the concentration-response curve. Low readings indicate an effect from little substance, high ones a need for much substance. Consider B1, for which a half-maximal response (EC50) required 8.47 nM.
Molecule B2 yielded an EC50 of 19.6 nM.
Same read-out and setting: the value for B3 was 68.2 nM; that for B4 was 13.1 nM; that for B5 was 14.9 nM.
Molecule B6 came in with an EC50 of 35.5 nM.
Same read-out and setting: the value for B7 was 17.6 nM.

The target in a further experiment is T2, di muNKG2D ECD Fc avi (murine, biotinylated at the avi-tag).
T2 construct: Dimeric fusion of murine NKG2D ECD to the C-terminus of an avi-tagged human IgG1 Fc; also called recombinant murine NKG2D
T2 sequence (chain, as listed by the source limits assumed): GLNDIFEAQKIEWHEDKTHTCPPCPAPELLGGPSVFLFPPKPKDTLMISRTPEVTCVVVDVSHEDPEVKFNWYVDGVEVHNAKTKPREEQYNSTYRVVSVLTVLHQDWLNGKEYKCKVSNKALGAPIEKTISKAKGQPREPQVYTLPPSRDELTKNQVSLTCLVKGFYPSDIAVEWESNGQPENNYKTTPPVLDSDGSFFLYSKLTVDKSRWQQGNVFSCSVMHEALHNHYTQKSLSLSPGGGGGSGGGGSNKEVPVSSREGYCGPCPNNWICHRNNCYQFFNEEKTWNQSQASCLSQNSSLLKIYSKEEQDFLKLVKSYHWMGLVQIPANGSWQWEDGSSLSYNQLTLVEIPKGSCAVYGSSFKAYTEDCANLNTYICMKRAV
Kind of experiment: ELISA; biotinylated antigen on streptavidin plate. As for the experimental part: Nunc streptavidin coated plates (MicroCoat, #11974998001) were coated with 25 μl/well biotinylated his avi huNKG2D ECD (SEQ ID NO: 93) at a concentration of 0.5 μg/ml and incubated at room temperature (RT) for 1 hour. After washing with 3×90 μl/well PBST-buffer (10×PBS, Roche #11666789001+0.1% TWEEN® (polysorbate) 20), 25 μl anti-NKG2D antibodies were added in 1:3 dilutions starting at a concentration of 3 μg/ml or alternatively with a 1:30 dilution of the original sample and incubated 1 h at RT. After washing (3×90 μl/well PBST-buffer), 25 μl/well anti hu kappa chain HRP (horseradish peroxidase)-conjugate (Millipore, #AP502P, 1:2000) was added and incubated at RT for 1 h. After washing (3×90 μl/well PBST-buffer) 25 μl/well TMB (3,3′,5,5′-tetramethylbenzidine) substrate (Roche, #11835033001) was added.
Nunc streptavidin coated plates (MicroCoat, #11974998001) were coated with 25 μl/well biotinylated di muNKG2D ECD Fc avi (SEQ ID NO: 98) at a concentration of 1 μg/ml and incubated at room temperature (RT) for 1 hour. The assay was performed as described above for human NKG2D.
(ELISA stands for enzyme-linked immunosorbent assay.)
Consider B8, for which the OD max stood at 0.1 OD.

For a further experiment, the target named is T3, mono huNKG2D ECD Fc kh avi (human, UniProt P0DOX5 223-449 = IgG part, biotinylated at the avi-tag).
T3 construct: Monovalent human NKG2D ECD fused to the C-terminus of an avi-tagged human IgG1 Fc knob chain, paired with an empty Fc hole chain
Kind of experiment: SPR ProteOn; antigen on NLC chip, Fab analyte. As for the experimental part: (§1) This incubation step was repeated once with 25 ml of a 5 mM MgSO₄ solution. The supernatants of both incubation steps were pooled, filtered and loaded on an IMAC column (His[…]™, GE Healthcare). Subsequently, the column was washed with 40 ml washing buffer (500 mM NaCl, 20 mM imidazole, 20 mM NaH2PO₄ pH 7.4). After the elution (500 mM NaCl, 500 mM imidazole, 20 mM NaH₂PO₄ pH 7.4) the eluate was re-buffered using PD10 columns (GE Healthcare).
(§2) Immobilization of recombinant antigens (ligand): Antigens were diluted with PBST (10 mM phosphate, 150 mM sodium chloride pH 7.4, 0.005% TWEEN® (polysorbate) 20) to 10 μg/ml, then injected at 30 μl/minute at varying contact times in vertical orientation for immobilization. […] Buffer (PBST) was injected along the sixth channel to provide an “in-line” blank for referencing. Association rate constants (kₒₙ) and dissociation rate constants (koff) were calculated using a simple one-to-one Langmuir binding model in PROTEON™ Manager v3.1 software by simultaneously fitting the association and dissociation sensorgrams. The equilibrium dissociation constant (KD) was calculated as the ratio koff/kₒₙ. Cross-reactivity of clones 5C5 and 13C6 to cynomolgus NKG2D, i.e. binding to di cyNKG2D ECD Fc avi, was assessed on IgG level (see Example 9).
As usually defined, the Kd is the constant that tells how readily two partners part at equilibrium. Read a low Kd as tighter binding. By koff is commonly meant the rate constant with which the complex falls apart. Low values mean a long-lived complex, high ones a short-lived complex. For orientation: kon means a measure of how fast the partners come together. The low end stands for slow association, the high end for fast association. Molecule B9 registered a Kd of 79 nM, a koff of 0.00096 s⁻¹ and a kon of 12000 M⁻¹ s⁻¹.
Taken in the same sequence, the figures for B10 were 15 nM, 0.0055 s⁻¹ and 360000 M⁻¹ s⁻¹.

The target in a further experiment is T4, di huNKG2D ECD Fc avi (human, biotinylated at the avi-tag).
T4 construct: Dimeric fusion of human NKG2D ECD to the C-terminus of an avi-tagged human IgG1 Fc
As to the kind of experiment: SPR ProteOn; antigen on NLC chip, Fab analyte. As for the experimental part:
as §1, §2
For B9, the Kd came to 74 nM, the koff was determined as 0.0007 s⁻¹ and the kon is 9500 M⁻¹ s⁻¹.
With B10, the Kd was 22 nM, the koff is 0.0056 s⁻¹ and the kon was determined as 250000 M⁻¹ s⁻¹.

For a further experiment, the target named is T5, his avi huNKG2D ECD (human, biotinylated at the avi-tag (in the ELISA)).
T5 construct: Human NKG2D ECD with N-terminal H6-avi tags, forms non-covalent dimers; also called recombinant human NKG2D
T5 chain: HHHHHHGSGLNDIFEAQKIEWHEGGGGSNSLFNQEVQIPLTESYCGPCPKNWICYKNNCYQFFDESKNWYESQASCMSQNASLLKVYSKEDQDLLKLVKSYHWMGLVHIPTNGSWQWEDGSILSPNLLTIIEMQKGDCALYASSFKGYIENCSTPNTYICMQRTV
Kind of experiment: SPR Biacore T200; antigen captured via anti-His, bispecific analyte. As for the experimental part:
(§3) On a CM5 chip, an anti-penta-His capture antibody (Qiagen Penta-His Antibody, BSA-free; #34660) was immobilized by standard amine coupling on flow cells 2 and 3 at approximately 12′000 RU. […] Regeneration at the level of the anti-H6 tag capture antibody was achieved by 2 pulses of 10 mM glycine/HCl pH 2.0 for 60 s. Data were double-referenced against the unimmobilized flow cell 1 and a zero concentration of the analyte. The sensorgrams of the analytes were fitted to a simple 1:1 Langmuir interaction model.
On the technique in general: In SPR one partner is held on a chip, and binding of the other changes the refractive index at the surface.
As to B1, the Kd stood at 10.5 nM.
On the same count and under the same terms, next, B2: 22.9 nM; B3: 46.3 nM.
Still for that read-out and setting: the value for B4 was 17.2 nM; that for B5 was 18.6 nM.
B6 displayed a Kd of 37.4 nM.
On the same count and under the same terms, next, B7: 14.5 nM.

The target of a further experiment is T6, hu N(A2B2)A-avi-His (human).
T6 construct: Construct containing the A2 domain of human CEA, with avi and His tags; also called human CEA (A2 domain)
T6 chain: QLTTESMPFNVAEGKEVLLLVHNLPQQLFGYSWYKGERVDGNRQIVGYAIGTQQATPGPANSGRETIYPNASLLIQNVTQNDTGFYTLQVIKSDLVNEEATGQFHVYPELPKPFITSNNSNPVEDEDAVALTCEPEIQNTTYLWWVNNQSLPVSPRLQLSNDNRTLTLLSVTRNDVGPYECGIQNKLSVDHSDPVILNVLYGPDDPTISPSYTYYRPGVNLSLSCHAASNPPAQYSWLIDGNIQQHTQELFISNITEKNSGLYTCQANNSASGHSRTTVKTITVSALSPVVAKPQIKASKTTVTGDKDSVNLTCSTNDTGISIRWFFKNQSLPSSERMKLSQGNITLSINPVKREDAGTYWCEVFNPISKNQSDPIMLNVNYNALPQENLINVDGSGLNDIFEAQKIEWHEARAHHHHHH
Described as above. As for the experimental part: as §3
In the case of B1, the Kd came out at 3.34 nM.
The molecule B2 showed a Kd of 3.77 nM.
Still for that read-out and setting: next, B3: 3.23 nM; B4: 5.13 nM.
Same read-out and setting: the value for B5 was 3.66 nM; that for B6 was 3.84 nM.
Same read-out and setting: next, B7: 2.55 nM.
